# Results reported in the MegaScale stability set (Tsuboyama et al. 2023).
# B1: EHEE_rd4_0086 (parent)
# chain: EIHIRTNGEEQARKVYKMLAKRNYDVKIEQHNGQWVVTAS
# Variants of: B1
# Test: folding stability dG (cDNA display proteolysis); higher = more stable
# Conditions: PBS, room temperature
row,Variant,folding stability dG
1,EIHIRTNGEEQARKVYKMLAKRNYDVKIEQHNGQWVLTAS,0.844 kcal/mol
2,EIHIRTLGEEQARKVYKMLAKRNYDVKIEQHNGQWVVTAS,1.81 kcal/mol
3,EIHIRTRGEEQARKVYKMLAKRNYDVKIEQHNGQWVVTAS,2.06 kcal/mol
4,EIHIRTGGEEQARKVYKMLAKRNYDVKIEQHNGQWVVTAS,1.5 kcal/mol
5,EIHIRTNGEEQARKVYKMLAKRNYDVEIEQHNGQWVVTAS,0.722 kcal/mol
6,EIHIRTNGEEQARKVYKMLAKRNYDVHIEQHNGQWVVTAS,1.66 kcal/mol
7,EIHIRTNGEEQARKVYKMLAKRNYDVIIEQHNGQWVVTAS,1.45 kcal/mol
8,EIPIRTNGEEQARKVYKMLAKRNYDVKIEQHNGQWVVTAS,0.072 kcal/mol
9,EITIRTNGEEQARKVYKMLAKRNYDVKIEQHNGQWVVTAS,2.41 kcal/mol
10,EIIIRTNGEEQARKVYKMLAKRNYDVKIEQHNGQWVVTAS,2.81 kcal/mol
11,EIHIRTNGEEQARKVYKMLAKRNYDVKIEQHNGQWQVTAS,1.07 kcal/mol
12,EIHIRTNGEEQARKVYKMLAKRNYDVKIEQHNGQWEVTAS,0.934 kcal/mol
13,EIHIRTNPEEQARKVYKMLAKRNYDVKIEQHNGQWVVTAS,0.221 kcal/mol
14,EIHIRTNGEEQARKVYKMLAKRFYDVKIEQHNGQWVVTAS,2.79 kcal/mol
15,EIHIRTNGEEQARKVYKMLAKRSYDVKIEQHNGQWVVTAS,1.55 kcal/mol
16,EIHIRTNGEEQARKVYKMLAKRPYDVKIEQHNGQWVVTAS,0.533 kcal/mol
17,EIHIRTNGEEQARKVYKMLAKRNYDVKMEQHNGQWVVTAS,1.69 kcal/mol
18,EIHIRTNGYEQARKVYKMLAKRNYDVKIEQHNGQWVVTAS,2.52 kcal/mol
19,EIHIRTNGVEQARKVYKMLAKRNYDVKIEQHNGQWVVTAS,1.76 kcal/mol
20,EIHIRTNGGEQARKVYKMLAKRNYDVKIEQHNGQWVVTAS,0.745 kcal/mol
21,EIHIRTNGEEQARKVYKMLACRNYDVKIEQHNGQWVVTAS,2.71 kcal/mol

row,Variant,folding stability dG
1,EIHIRTNGEEQARKVYKMLAWRNYDVKIEQHNGQWVVTAS,1.61 kcal/mol
2,EIHIRTNGEEQARKVYKMLAHRNYDVKIEQHNGQWVVTAS,1.69 kcal/mol
3,EIHIRTNGEEQARKVYKMLAKRNSDVKIEQHNGQWVVTAS,0.914 kcal/mol
4,EIHIRTNGEEQARKVYKMLAKRNMDVKIEQHNGQWVVTAS,1.71 kcal/mol
5,EIHIRTNGEEQARKVYKMLAKRNYDVKIEQHDGQWVVTAS,1.9 kcal/mol
6,EVHIRTNGEEQARKVYKMLAKRNYDVKIEQHNGQWVVTAS,1.42 kcal/mol
7,EPHIRTNGEEQARKVYKMLAKRNYDVKIEQHNGQWVVTAS,0.357 kcal/mol
8,EIHIRTNGEEQARKVYKMLAKRNYDVKIEQPNGQWVVTAS,0.168 kcal/mol
9,EIHIRTNGEEQARKVYKMLAKRNYDVKIEQSNGQWVVTAS,1.78 kcal/mol
10,EIHIRTNGEEQARKVYKMLAKRNYDVKIEQFNGQWVVTAS,2.11 kcal/mol
11,EIHIRTNGEEQARKVYKMLAKRNYDVKIEQINGQWVVTAS,2.43 kcal/mol
12,EIHIRTNGEEQARKVYKMLAKRNYDVKIEQHNGQWVVTRS,0.961 kcal/mol
13,EIHIRTNGEEQARKVYKMLAKRNYDVKIEQHNGQWVVTSS,1.21 kcal/mol
14,EIHIRTNGEEQARKVYKMLAKRNYDVKIEQHNGQWVVTYS,2.29 kcal/mol
15,EIHIRTNGEEQARKVYKMLAKRNYDVKIEQHNGQWVVTVS,2.51 kcal/mol
16,EIHIRTNGEEQARKVYKMLAKRNYDVKIEQHNGQWVVTQS,0.463 kcal/mol
17,EIHIRTNGEEQARKVYKMLAKRNYDVKIEQHNGQWVVTIS,2.85 kcal/mol
18,EIHIRTNGEEQARKVYKMLAKRNYDVKIEQHNGQWVVTHS,1.11 kcal/mol
19,EIHIRTNGEEQARKVYKMLAKRNYDVKIEQHNGQWVVRAS,1.78 kcal/mol
20,EIHIRTNGEEQARKVYKMLAKRNYDVKIEQHNGQWVVYAS,1.75 kcal/mol
21,EIHRRTNGEEQARKVYKMLAKRNYDVKIEQHNGQWVVTAS,0.105 kcal/mol

row,Variant,folding stability dG
1,EIHVRTNGEEQARKVYKMLAKRNYDVKIEQHNGQWVVTAS,1.46 kcal/mol
2,EIHQRTNGEEQARKVYKMLAKRNYDVKIEQHNGQWVVTAS,0.032 kcal/mol
3,EIHSRTNGEEQARKVYKMLAKRNYDVKIEQHNGQWVVTAS,-0.073 kcal/mol
4,EIHIRTNGEEQARKVYKMYAKRNYDVKIEQHNGQWVVTAS,1.35 kcal/mol
5,EIHIRTNGEEQARKVYKMLAKRNYDVKIEQHNGQLVVTAS,-0.221 kcal/mol
6,EIHIRTNGEEQARKVYKMLAKRNYDVKIEQHNGQFVVTAS,1.01 kcal/mol
7,EIHIRTNGEEQARKVYKMLAKRNYDVKIEHHNGQWVVTAS,1.93 kcal/mol
8,EIHIRTNGEEQARKVYKMLAKRNYDVKIEIHNGQWVVTAS,2.1 kcal/mol
9,EIHIRTNGEEQARKVYKMLAKRNYDVKIERHNGQWVVTAS,1.81 kcal/mol
10,EIHIRTNGEEQARQVYKMLAKRNYDVKIEQHNGQWVVTAS,1.8 kcal/mol
11,EIHIRTNGEEQARKVYKMLDKRNYDVKIEQHNGQWVVTAS,0.486 kcal/mol
12,EIHIRTNGEEQARKVYKMLRKRNYDVKIEQHNGQWVVTAS,2.14 kcal/mol
13,EIHIRTNGEEQARKVYKMLQKRNYDVKIEQHNGQWVVTAS,2.16 kcal/mol
14,EIHIRTNGEEQARKVYKMLHKRNYDVKIEQHNGQWVVTAS,1.36 kcal/mol
15,EIHIRTNGEEQARKVYKMLNKRNYDVKIEQHNGQWVVTAS,0.982 kcal/mol
16,EIHIRTNGEEQARKAYKMLAKRNYDVKIEQHNGQWVVTAS,1.12 kcal/mol
17,EIHIRTNGEEQARKIYKMLAKRNYDVKIEQHNGQWVVTAS,2.49 kcal/mol
18,EIHIRTNGEEQARKLYKMLAKRNYDVKIEQHNGQWVVTAS,2.35 kcal/mol
19,EIHIRTNGEEQARKYYKMLAKRNYDVKIEQHNGQWVVTAS,1.97 kcal/mol
20,EIHIRTNGEEQARKQYKMLAKRNYDVKIEQHNGQWVVTAS,0.153 kcal/mol
21,EIHIRTNGEEQARKNYKMLAKRNYDVKIEQHNGQWVVTAS,-0.279 kcal/mol
